According to a protein production outcome set (Wang et al. 2014):

test: label from the status in PepcDB records

Protein production, failed:
MADWLIGLIMGAVEGLTEFLPVSSTGHMILTGHLIGFDDERAKVFEVVIQLGSILAVVVIFWKRLWSLVGIGKVTDGPSLNLLHIIIGMIPAGVLGVLFHSTIKEGLFGPGPVVISLVAGGILMIVAEKFSKPSTARTLDEITYKQAFTIGMFQCLALWPGFSRSGSTISGGLLARVSHTAAAEYTFILAVPMMVAASGLDLIKSWDVLSSADITLFVTGFVTAFVVAMLAIVSFLKLLSRVKLTPFAYYRFILAAVFYFFIM, MAEASIQIEVVYATVQRQVLMTVDVPAGSSVRQALALCGMDREFPELDLSHCPVGIFGKVVADPAARVLEAGERIEIYRPLLADPMEIRRLRAAKAREKRTLPG, MAEEAALNFADFYDAELALHNAHFRVTAAVGRSDRVLDVGCGAGQTTRDAARAAEAGRAHGIDLSATMLEIARRRSAEEGLPNATFELADAQNYHFAKGEFDLCISRFGVMFFADPAVAFANIANAVRPGGRFIFMVWQGRDHNEWATAIHEALDPDSTGPVAAGKAFSLSETSVTSGLLETAGFTAIEFREINEPVFYGPDPETALVTIQTFENVKNALDRPATTAEIRARLLDMLEAHQTPHGVQFDSRAWLITGGRYGDSPPCFIGDFRSA, MAEEAKAKGNAAFSSGDFTTAINHFTEAIALAPTNHVLFSNRSAAHASLHQYAEALSDAKETIKLKPYWPKGYSRLGAAHLGLNQFELAVTAYKKGLDVDPTNEALKSGLADAEASVARSRAAPNPFGDAFQGPEMWTKLTSDPSTRGFLQQPDFVNMMQEIQKNPSSLNLYLKDQRVMQSLGVLLNVKFRPPPPQGDEAEVPESDMGQSSSNEPEVEKKREPEPEPEPEVTEEKEKKERKEKAKKEKELGNAAYKKKDFETAIQHYSTAIEIDDEDISYLTNRAAVYLEMGKYNECIEDCNKAVERGRELRSDYKMVARALTRKGTALTKMAKCSKDYEPAIEAFQKALTEHRNPDTLKRLNDAERAKKEWEQKQYFDPKLGDEEREKGNDFFKEQKYPEAIKHYTEAIKRNPNDHKAYSNRAASYTKLGAMPEGLKDAEKCIELDPTFSKGYSRKAAVQFFLKEYDNAMETYQAGLEHDPSNQELLDGVKRCVQQINKANRGDLTPEELKERQAKGMQDPEIQNILTDPVMRQVLSDLQENPSAAQKHMQNPMVMNKIQKLISAGIVQMK, MAEHGETTEDGDSEIDYEFLAELSALLGVDAVQLAKSQEEEEHKERMKMKKGFNSQMRSEAKRLKTFETYDTFRSWTPQEMAAAGFYHTGVRLGVQCFCCSLILFGNSLRKLPIERHKKLRPECEFLLGKDVGNIGKYDIRVKRPEKMLRGGKARYHEEEARLESFEDWPFYAHGTSPRVLSAAGFVFTGKRDTVQCFSCGGSLGNWEEGDDPWKEHAKWFPKCEFLQSKISSEEIAQYIQGYGGFVHVTGEHFVNSWVRRELPMVSGRKDIVQCFSCGGCMENWAEGDDPIQEHNKFFPK, MAEIIDKTLNMLVTGQRARVIQIKGKGNSRKRLLEMGMVPGTVLSVTKKAPLGDPVDFKLKGYNLSLRKQEAEMIVVEPLEG, MAEKKKKNKKQLSSFSILFIILIVLGIVTVLLNGQPFTPREIDGKMVDHVVGAKLSDIIMAPFNGFKDAIEINIFILVLGGFLNIVTQTGALEAGIQSVVKKLKGNELKIIPILMILFSIGGSTYGMAEETIPFYGLLSATMVAAGFDTFVAVGTVLLGAGSGVIGSTVNPFSTGVAMDALRGIGIQPNTGIILIVGAILWAASTSYSIFIVMRYAKKVKADKGSTILSLQEQEDMEKTYGQAASKEMPFTNRHKKILMVFAFCFVIMIVSLIPWNDFGVTIFKGWTSVLTGNSFGDWYFGDLAMWFFLLGIIAALIGRFTEKETIEAFIDGAKDMLSVVLIIVVARGASVLMSKTYLDSFILDKAAGLLQGLSPVLFVIGAFVLYLGLSFLIPSTSGLAYVSIPVMGALAKNIGLSPEVMVMIFASGCGLINLITPTSGVVMGGLEISKVQYATWTKFMAKPMIVLGLINLIILIGAMLLFS, MAEPRENLMDWLRDAHAMEQQAEQMLKAQAARIEHYPKLKARIEQHLEETLGQQRLVEASIERLGGSPSVVKDAMGKMAAFGQAMGGMTTSDEIVKGAMASYVFENLEIATYTALLGAAKTVGDVETQRMCEQILPQEEAMAKWLLEHLPELTEEFLVRDATPGVTAKK, MAEPSQAPTPAPAAQPRPLQSPAPAPTPTPAPSPASAPIPTPTPAPAPAPAAAPAGSTGTGGPGVGSGGAGSGGDPARPGLSQQQRASQRKAQVRGLPRAKKLEKLGVFSACKANETCKCNGWKNPKPPTAPRMDLQQPAANLSELCRSCEHPLADHVSHLENVSEDEINRLLGMVVDVENLFMSVHKEEDTDTKQVYFYLFKLLRKCILQMTRPVVEGSLGSPPFEKPNIEQGVLNFVQYKFSHLAPRERQTMFELSKMFLLCLNYWKLETPAQFRQRSQAEDVATYKVNYTRWLCYCHVPQSCDSLPRYETTHVFGRSLLRSIFTVTRRQLLEKFRVEKDKLVPEKRTLILTHFPKFLSMLEEEIYGANSPIWESGFTMPPSEGTQLVPRPASVSAAVVPSTPIFSPSMGGGSNSSLSLDSAGAEPMPGEKRTLPENLTLEDAKRLRVMGDIPMELVNEVMLTITDPAAMLGPETSLLSANAARDETARLEERRGIIEFHVIGNSLTPKANRRVLLWLVGLQNVFSHQLPRMPKEYIARLVFDPKHKTLALIKDGRVIGGICFRMFPTQGFTEIVFCAVTSNEQVKGYGTHLMNHLKEYHIKHNILYFLTYADEYAIGYFKKQGFSKDIKVPKSRYLGYIKDYEGATLMECELNPRIPYTELSHIIKKQKEIIKKLIERKQAQIRKVYPGLSCFKEGVRQIPVESVPGIRETGWKPLGKEKGKELKDPDQLYTTLKNLLAQIKSHPSAWPFMEPVKKSEAPDYYEVIRFPIDLKTMTERLRSRYYVTRKLFVADLQRVIANCREYNPPDSEYCRCASALEKFFYFKLKEGGLIDK

Protein production, not failed:
MAEAGDENLYAAARDIARALGKDPSAAGDILQILSGYGASGNRGGDPRPTPSRGGSNVNFDRALTSLERQISSYIVEDRPIWSDPVDSRTFLDSVDELLAIAGDLRSMAGDKSVAVCQSRADELIQQVMFRLQEEFGFVMDRAPDSFDSDDEFPGEEDNDTSDGVIVARPITDYKIVIEALQSSVIGDLNAIAVRMVAGGFAKECSRVYSSRRREFLEESLSRLHLRGLSMEEVQESPWQDLEDEIDRWIKAVTLIFHVFFPSERLLCDRVFSDLPVSSVTDLSFMEVCRGTTTQLLNFADAIALGSRLPERLFKVVDLYEAMQDLIPKMETLFSDRYCSPLRHEALAIHKRLGEAIRGIFMELENLIRRDPPKTAFPGGGIHPITRYVMNYLRAACKSRQSLEQILDQTGNETGSDTRPLSVQIIWVLELLESNLEGKKRTYRDPSLCFLFMMNNDKYILDKAKDNELGLVLGEDWIVKHAAKLRQYHSNYRRSSWNQVVGLLRTDGPYPKLVENLRLFKSQFDEVCKVQSQWVVSDGQLREELRSSVAGIVSPAYSNFIRRLKESPEINGRRGEPFIPYTVEDVEFIIKRLFKESSS, MAEARPDSLTRSRAAKPAGEGAAFSPLYRQIKELLVQSLDRGEWKPGELIPSEIDLAARFQVSQGTVRKAVDELAAEHLLLRRQGKGTFVATHHEARVRYRFLRLAPDEEGEGGRAESRILECRRLRAPAEIARALELRAGETVVTIRRQLSMNHMPTVIDDLWLPGTHFRGLTLELLTASKAPLYGLFESEFGVSMVRADEKLRAVAASPEIAPLLGVEPGRPLLQVDRISYTYGDRPMEVRRGLYLTDHYHYRNSLN, MAEDKTKPSELDQGKYDADDNVKIICLGDSAVGKSKLMERFLMDGFQPQQLSTYALTLYKHTATVDGRTILVDFWDTAGQERFQSMHASYYHKAHACIMVFDVQRKVTYRNLSTWYTELREFRPEIPCIVVANKIDADINVTQKSFNFAKKFSLPLYFVSAADGTNVVKLFNDAIRLAVSYKQNSQDFMDEIFQELENFSLEQEEEDVPDQEQSSSIETPSEEAASPHS, MAEIDYKKVTGMIHSTESFGSVDGPGIRFIIFMQGCKMRCQYCHNPDTWEMETNNSKERTVEDVLKEALRYKHFWGKDGGITVSGGEAMLQIDFITALFIEAKKLGIHTTLDTCGFAYRATPEYHAILEKLLDVTDLVLLDLKEIDSEQHKIVTRQSNKNILQFARYLSDRGTPVWIRHVLVPGLTDIDDHLKRLGEFVQTLDNVDKFEVLPYHTMGEFKWRELGIPYPLAGVKPPTPERVKNAKDIMKTESYTEYLKRIQN, MAEKPKLHYFNARGRMESTRWLLAAAGVEFEEKFIKSAEDLDKLRNDGYLMFQQVPMVEIDGMKLVQTRAVLNYIASKYNLYGKDIKERALIDMYIEGIADLGEMILLLPVCPPEEKDAKLALIKEKIKNRYFPAFEKVLKSHGQDYLVGNKLSRADIHLVELLYYVEELDSSLISSFPLLKALKTRISNLPTVKKFLQPGSPRKPPMDEKSLEEARKIFRF, MAELEKTFALIKPDAVRAGKAQEIMQLIELNGFTIIAKQKLQLTRARAEEFYGEHKGKEFFPKLVNFMTSGPIWALVLAKPGAILAWRALMGPTNVFKARAEQPKCLRALYGTDGTQNATHGSDSPISAAREIKFFFPTLSGDPTIYAEPTAAAEYITKRIQPALAKALAALAREKPSADKFEAITFVAGYLLQNNPNKPKV, MAELKSLAKDTAIYGASSIIGKFLNYFLVPIYTFSLPAASGGYGVITKMYAIVALLLVVLTFGMETGFFRFANKGDDDPKKVYSVSLLMVGGVSLLFLLLCLVFLNPIAGLMGYSEHPWYLGMMLIVLAMDAIQAIPFAYLRYKKRPIKFAGLKLLFIFVSILLNILYFVVMKGDDVGVAFLINLICSFVVMLGLIPEFREFRYCPDRLLMKRMLYYSFPILILGVAGIVNQVGDKIIFPFVYPDKVEADVQLGIYSAATKIAMIMAMITQAFRFAYEPFVFGKSKDKDNKRIYAQAMKFFIIFTLLAFLAVMFYLDILRYIIAEDYWEGLRVVPIVMIAEMFMGIYFNLSFWYKLTDDTRWGAYFSIIACLTVVLMNIFLIPVYGYVACAWAGFTGYAIAMLLSYFVGQKKYPIAYDLRGIGCYVGLAIILYLIGEWIPIHNTVLLLAFRTVLLLLFIAYIIKRDLPLSQIPVINRIIKKK, MAELQMLLEEEIPGGRRALFDSYTNLERVADYCENNYIQSADKQRALEETKAYTTQSLASVAYLINTLANNVLQMLDIQASQLRRMESSINHISQTVDIHKEKVARREIGILTTNKNTSRTHKIIAPANLERPVRYIRKPIDYTILDDIGHGVKVSTQNMKMGGLPRTTPPTQKPPSPPMSGKGTLGRHSPYRTLEPVRPPVVPNDYVPSPTRNMAPSQQSPVRTASVNQRNRTYSSSGSSGGSHPSSRSSSRENSGSGSVGVPIAVPTPSPPSVFPGHPVQFYSMNRPASRHTPPTIGGSLPYRRPPSITSQTSLQNQMNGGPFYSQNPVSLAPPPPSILQVTPQLPLMGFVARVQENISDTPPPPPPVEEPVFDESPPPPPPPEDYEEEEAAVVEYSDPYAEEDPPWAPRSYLEKVVAIYDYTKDKEDELSFQEGAIIYVIKKNDDGWYEGVMNGVTGLFPGNYVESIMHYSE, MAEPGIDKLFGMVDSKYRLTVVVAKRAQQLLRHGFKNTVLEPEERPKMQTLEGLFDDPNAETWAMKELLTGRLVFGENLVPEDRLQKEMERIYPGEREE, MAESIFRKLRDGGEEGELAPALTIEETVASPFGLDVSGYLLTNLSSSILAGKSSSQGLVLITFSRSPSFYLQLLKQKGIVVSSSSKWIRILDCYTDPLGWIDQSSTSFSEGSSLIKLHKCVSDLKKLFSSIIEAGRVRSLSKGLYEIKSDCFGAELVGTGKTRFCVAIDSKREVIIYLNFESAQISSVFWSLNTDLHQEKVTNALEYISTMKANLEPLCPSSDGQRNALENLFSVHQDFGKGRFHVRFKLRKGRVRVMSEEYHVDQSGINFSPISSVDTVIAATKSLLPKASYLDLLFNYLVQFNLQLSEKERVEKEKVVLPFEHQDDGKSNEIYDGRRSLVDGKIETTPLSSMELQTDVVSSGKGGEIIYFRDSDDEHPDSDEDPDDDLDI
